The values below come from PMC8016914.

The stoichiometry N is the number of molecules, sites or subunits per partner or assembly.

In this assay the target is T1, PsbS modified to contain a strep-tag at the C terminus (Arabidopsis thaliana), Q9XF91.
T1 chain: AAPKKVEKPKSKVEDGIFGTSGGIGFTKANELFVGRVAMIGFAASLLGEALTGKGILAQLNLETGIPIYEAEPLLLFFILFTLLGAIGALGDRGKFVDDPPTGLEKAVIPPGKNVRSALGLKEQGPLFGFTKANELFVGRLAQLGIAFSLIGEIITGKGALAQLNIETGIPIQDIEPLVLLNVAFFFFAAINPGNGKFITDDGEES
The assay is described as follows: SDS-PAGE and immunoblot; PsbS in detergent and in LHCII + PsbS proteoliposomes (thylakoid lipids); monomeric (M) and dimeric (D) bands detected with an anti-PsbS antibody. The conditions noted are these: remark: other sources report otherwise. A general note: In western blotting, separated proteins are transferred to a membrane and probed.

B1: PsbS modified to contain a strep-tag at the C terminus, Q9XF91 60-265 (natural protein)
chain: AAPKKVEKPKSKVEDGIFGTSGGIGFTKANELFVGRVAMIGFAASLLGEALTGKGILAQLNLETGIPIYEAEPLLLFFILFTLLGAIGALGDRGKFVDDPPTGLEKAVIPPGKNVRSALGLKEQGPLFGFTKANELFVGRLAQLGIAFSLIGEIITGKGALAQLNIETGIPIQDIEPLVLLNVAFFFFAAINPGNGKFITDDGEES
With B1, the stoichiometry N is 2.
